Legend:
Experiment in all cases: co-IP: anti-FLAG M2 immunoprecipitates immunoblotted with anti-CHIP
[1] = target: T1, FLAG (F)-tagged hsp90α (wild type) (UniProt P07900 1-732)
T1 construct: Expressed from a plasmid described in cited literature, or translated in vitro; also called F-hsp90α; F-hsp90; not shown: FLAG tag
Experimental: (§1) Following culture in the plates for 24 hours, cells were transfected by Lipofectamine Plus following the protocol provided by Invitrogen (Carlsbad, Calif.). Transfected cells were cultured in full-medium containing drugs dissolved in DMSO or vehicle for 24 hours. Cellular extracts were prepared by directly adding lysis buffer (25 mM Tris-phosphate, pH 7.8, 2 mM DTT, 2 mM 1,2-diaminocyclohexane-N′,N′,N′,N′-tetraacetic acid, 10% glycerol, 0.2% Triton X-100) to the cells on ice. For immuno-precipitations (IP), 2×10⁶ cells in 100 mm dishes were transfected and/or treated as described above. Cellular extracts were prepared and immunoprecipitation performed as described 24. For immunoblotting, cellular extracts or immunoprecipitates were separated on SDS-PAGE, transferred to a nitrocellulose membrane, probed with antibodies, and visualized with enhanced chemiluminescence, as described (Chen, Z., et al., Mol. Pharmacol., 69:1527-33 (2006)).
(§2) The mutants were also analyzed for their ability to bind ATP, as well as for binding to co-chaperones, client proteins and the biotinylated (B) GA (geldanamycin) (Kamal, A., et al., Nature., 425:407-10 (2003)). Precipitates from the mixture of cell lysates containing hsp90α and ATP-sepharose were analyzed with anti-F antibody.

[2] = target: T2, FLAG (F)-tagged hsp90α K100R mutant (UniProt P07900 1-732)
T2 construct: Made by site-directed mutagenesis, expressed by transfection; also called K/R mutant at K100; acetylation-deficient mutant; not shown: FLAG tag
Experimental: as §1, §2

[3] = target: T3, FLAG (F)-tagged hsp90α K292R mutant (UniProt P07900 1-732)
T3 construct: Made by site-directed mutagenesis, expressed by transfection; also called K/R mutant at K292; acetylation-deficient mutant; not shown: FLAG tag
Experimental: as §1, §2

[4] = target: T4, FLAG (F)-tagged hsp90α K327R mutant (UniProt P07900 1-732)
T4 construct: Made by site-directed mutagenesis, expressed by transfection; also called K/R mutant at K327; acetylation-deficient mutant; not shown: FLAG tag
Experimental: as §1, §2

[5] = target: T5, FLAG (F)-tagged hsp90α K478R mutant (UniProt P07900 1-732)
T5 construct: Made by site-directed mutagenesis, expressed by transfection; also called K/R mutant at K478; acetylation-deficient mutant; not shown: FLAG tag
Experimental: as §1, §2

[6] = target: T6, FLAG (F)-tagged hsp90α K546R mutant (UniProt P07900 1-732)
T6 construct: Made by site-directed mutagenesis, expressed by transfection; also called K/R mutant at K546; acetylation-deficient mutant; not shown: FLAG tag
Experimental: as §1, §2

[7] = target: T7, FLAG (F)-tagged hsp90α K558R mutant (UniProt P07900 1-732)
T7 construct: Made by site-directed mutagenesis, expressed by transfection; also called K/R mutant at K558; acetylation-deficient mutant; not shown: FLAG tag
Experimental: as §1, §2

[8] = target: T8, FLAG (F)-tagged hsp90α K292Q mutant (UniProt P07900 1-732)
T8 construct: Made by site-directed mutagenesis, expressed by transfection; also called K/Q mutant at K292; acetylation-mimetic mutant; not shown: FLAG tag
Experimental: as §1, §2

[9] = target: T9, FLAG (F)-tagged hsp90α K69R mutant (UniProt P07900 1-732)
T9 construct: Made by site-directed mutagenesis, expressed by transfection; also called K/R mutant at K69; acetylation-deficient mutant; not shown: FLAG tag
Experimental: as §1, §2

Measured: binding result

B1: CHIP (other, UniProt Q9UNE7 1-303, looked up)
chain: MKGKEEKEGGARLGAGGGSPEKSPSAQELKEQGNRLFVGRKYPEAAACYGRAITRNPLVAVYYTNRALCYLKMQQHEQALADCRRALELDGQSVKAHFFLGQCQLEMESYDEAIANLQRAYSLAKEQRLNFGDDIPSALRIAKKKRWNSIEERRIHQESELHSYLSRLIAAERERELEECQRNHEGDEDDSHVRAQQACIEAKHDKYMADMDELFSQVDEKRKKRDIPDYLCGKISFELMREPCITPSGITYDRKDIEEHLQRVGHFDPVTRSPLTQEQLIPNLAMKEVIDAFISENGWVEDY
notes: Endogenous protein co-immunoprecipitated from cell lysates and detected with anti-CHIP
binds: all assays above
